The target of experiment [1] is T1, cynoCSF1R ECD-Fc (cynomolgus).
T1 construct: also called cynomolgus CSF1R ECD
Briefly: ELISA, plate coated with cynoCSF1R ECD-Fc. A digest of the protocol: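 Plates coated overnight with 2 μg/ml recombinant cynomolgus CSF1R ECD-Fc (no 19-aa leader); humanized or parental chimeric antibody added as 0.5× serial dilutions from 2000 ng/ml, 90 min RT. Bound antibody detected with peroxidase anti-human kappa (60 min RT) and OPD substrate (30 min), read at A450.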
In general terms: In an ELISA, binding on a coated surface is turned into a signal by an enzyme label.

Experiment [2] concerns the target T2, hCSF1R ECD.506 (human, UniProt P07333 20-506).
T2 construct: also called human CSF1R ECD
Put plainly: SPR Biacore T100, antibody captured on anti-human IgG, hCSF1R ECD.506 as analyte, 1:1 model. A digest of the protocol: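 Humanized anti-CSF1R antibodies were captured on an anti-human IgG CM5 chip at 150 RU, with Rmax for hCSF1R ECD.506 analyte at 100 RU. ka, kd and KD were fitted with a 1:1 binding model.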

Experiment [3] has as its target T3, mCSF1R ECD-Fc (mouse).
T3 construct: also called mouse CSF1R ECD
Put plainly: ELISA, plate coated with mCSF1R ECD-Fc, detection anti-human kappa-HRP, A450. A digest of the protocol:
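Humanized or parental chimeric antibodies, 0.5× serial dilutions from 2000 ng/ml, bound for 90 min at RT to wells coated overnight with 2 μg/ml recombinant mouse CSF1R ECD-Fc; blocked with Blocker-Blotto. Bound antibody detected with HRP anti-human kappa (60 min RT) and o-phenylenediamine substrate, 30 min, A450.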

Experiment [4] has as its target human CSF1R on CSF1R (SEQ ID NO: 2)-transfected CHO cells (human, UniProt P07333 20-972). Put plainly: cell-based or functional assay.
Experiment [5] addresses T1, cynoCSF1R ECD-Fc. Put plainly: competition ELISA, blocking of human IL34 binding to cynoCSF1R ECD-Fc.
Experiment [6] concerns the target T4, hCSF1R ECD.506-Fc (human).
T4 construct: also called human CSF1R ECD-Fc fusion protein; human CSF1R ECD
Put plainly: ELISA, plate coated with human CSF1R ECD-Fc. The method in brief: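 Plates coated overnight with 1 μg/ml hCSF1R ECD.506-Fc or human M-CSF R Fc chimera; humanized or parental chimeric antibody added as 0.5× serial dilutions from 2000 ng/ml, 90 min at RT. Bound antibody detected with peroxidase anti-human kappa (60 min) and o-phenylenediamine substrate (30 min), A450 read.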

Experiment [7] has as its target T1, cynoCSF1R ECD-Fc. Put plainly: competition ELISA, blocking of human CSF1 binding to cynoCSF1R ECD-Fc (curve-fit value beyond the range tested). As for the experimental part: Recombinant Human CSF1 (M-CSF; R&D Systems) was biotinylated using an NH₂-Biotin Labeling Kit (Dojindo Molecular Technologies). One hundred μl of 1 μg/ml biotinylated CSF1 in PBST/0.1% BSA was added to the wells of Reacti-Bind Streptavidin coated plates (Pierce) pre-blocked with SuperBlock blocking buffer (Pierce) according to the manufacturer's instructions. Fifty μl of 0.5× serial dilutions of the humanized antibody or parental chimeric antibody, beginning with 2000 ng/ml, was incubated with 50 ng/ml hCSF1R ECD.506-Fc (SEQ ID NO: 6; FivePrime Therapeutics) or 50 ng/ml cynoCSF1R ECD-Fc (FivePrime Therapeutics, SEQ ID NO: 8, but without the 19 amino acid leader sequence) in 100 μl PBST/0.1% BSA for 90 min at RT, after which the admix was transferred to one or more wells of a ligand-coated plate. After 90 min at RT, wells were washed with PBST, and a 1:5000 dilution of an Fc-fragment-specific peroxidase-conjugated goat anti-human IgG (Jackson Immuno Research) in PBST/0.1% BSA was added to each well. After incubation at RT for 60 min, wells were washed with PBST/0.1% BSA, and o-phenylenediamine dihydrochloride peroxidase substrate (Sigma) was added to each well. After incubation at RT for 30 min, A450 values of each well were read directly on a SpectraMaxPlus spectrophotometer with SoftMaxPro software (Molecular Devices).

T1 sequence (chain, as listed by the source): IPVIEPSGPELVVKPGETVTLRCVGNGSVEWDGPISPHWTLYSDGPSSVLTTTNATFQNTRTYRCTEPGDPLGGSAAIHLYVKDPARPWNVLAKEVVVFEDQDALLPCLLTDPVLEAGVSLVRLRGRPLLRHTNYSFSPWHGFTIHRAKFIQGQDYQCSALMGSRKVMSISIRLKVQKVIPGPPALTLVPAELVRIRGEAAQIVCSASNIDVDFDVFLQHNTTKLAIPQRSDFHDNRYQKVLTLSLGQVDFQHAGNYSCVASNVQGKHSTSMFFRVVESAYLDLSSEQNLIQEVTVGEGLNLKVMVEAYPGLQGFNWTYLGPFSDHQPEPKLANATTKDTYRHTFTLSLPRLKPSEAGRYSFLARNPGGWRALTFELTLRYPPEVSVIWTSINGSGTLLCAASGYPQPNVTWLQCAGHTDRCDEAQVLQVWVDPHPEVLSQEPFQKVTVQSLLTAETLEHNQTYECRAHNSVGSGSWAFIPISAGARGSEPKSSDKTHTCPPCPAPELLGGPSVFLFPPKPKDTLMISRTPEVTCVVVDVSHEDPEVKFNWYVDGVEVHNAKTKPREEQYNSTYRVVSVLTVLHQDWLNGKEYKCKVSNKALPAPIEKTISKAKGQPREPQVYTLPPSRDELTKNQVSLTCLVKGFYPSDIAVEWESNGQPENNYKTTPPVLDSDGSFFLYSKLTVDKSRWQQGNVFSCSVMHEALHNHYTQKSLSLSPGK
T2 sequence (P07333 20-506): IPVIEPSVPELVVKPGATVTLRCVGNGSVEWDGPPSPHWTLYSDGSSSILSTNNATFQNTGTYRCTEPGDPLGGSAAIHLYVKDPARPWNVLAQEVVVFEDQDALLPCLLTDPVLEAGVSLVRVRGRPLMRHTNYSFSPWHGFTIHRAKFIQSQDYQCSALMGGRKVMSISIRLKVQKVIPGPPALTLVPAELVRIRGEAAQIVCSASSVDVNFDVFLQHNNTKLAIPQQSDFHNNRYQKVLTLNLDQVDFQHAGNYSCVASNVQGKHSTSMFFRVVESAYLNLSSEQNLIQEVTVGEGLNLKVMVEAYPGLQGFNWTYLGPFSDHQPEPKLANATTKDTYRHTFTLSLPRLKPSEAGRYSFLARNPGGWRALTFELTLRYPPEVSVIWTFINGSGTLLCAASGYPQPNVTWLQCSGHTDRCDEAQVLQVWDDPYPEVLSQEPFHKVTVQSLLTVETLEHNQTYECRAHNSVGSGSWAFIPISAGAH
Sequence of human CSF1R on CSF1R (SEQ ID NO: 2)-transfected CHO cells (P07333 20-972): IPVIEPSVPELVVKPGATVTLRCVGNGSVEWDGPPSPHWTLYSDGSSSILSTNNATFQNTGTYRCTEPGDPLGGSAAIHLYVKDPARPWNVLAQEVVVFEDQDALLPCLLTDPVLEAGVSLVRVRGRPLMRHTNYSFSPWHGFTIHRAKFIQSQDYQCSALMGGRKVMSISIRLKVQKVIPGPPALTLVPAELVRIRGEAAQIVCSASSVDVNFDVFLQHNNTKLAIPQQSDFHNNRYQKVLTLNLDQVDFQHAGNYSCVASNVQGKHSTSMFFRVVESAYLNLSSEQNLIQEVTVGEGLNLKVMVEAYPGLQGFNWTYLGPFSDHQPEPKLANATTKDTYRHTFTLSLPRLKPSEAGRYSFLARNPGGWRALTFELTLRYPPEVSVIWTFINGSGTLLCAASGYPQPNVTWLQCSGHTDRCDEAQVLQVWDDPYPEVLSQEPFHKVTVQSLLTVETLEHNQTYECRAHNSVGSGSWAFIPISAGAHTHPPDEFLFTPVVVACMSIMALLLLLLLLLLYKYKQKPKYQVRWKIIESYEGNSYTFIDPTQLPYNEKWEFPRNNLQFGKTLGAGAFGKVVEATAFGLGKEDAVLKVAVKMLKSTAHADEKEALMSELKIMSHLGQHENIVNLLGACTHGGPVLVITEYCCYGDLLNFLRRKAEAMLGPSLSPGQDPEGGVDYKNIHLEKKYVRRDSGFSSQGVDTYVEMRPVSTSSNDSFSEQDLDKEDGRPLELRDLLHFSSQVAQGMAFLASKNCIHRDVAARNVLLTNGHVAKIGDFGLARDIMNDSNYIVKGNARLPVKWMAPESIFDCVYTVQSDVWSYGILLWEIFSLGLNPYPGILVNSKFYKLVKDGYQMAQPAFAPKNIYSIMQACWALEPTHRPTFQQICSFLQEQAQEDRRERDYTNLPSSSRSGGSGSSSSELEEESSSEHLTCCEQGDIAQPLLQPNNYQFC
T4 sequence (chain, as listed by the source limits assumed): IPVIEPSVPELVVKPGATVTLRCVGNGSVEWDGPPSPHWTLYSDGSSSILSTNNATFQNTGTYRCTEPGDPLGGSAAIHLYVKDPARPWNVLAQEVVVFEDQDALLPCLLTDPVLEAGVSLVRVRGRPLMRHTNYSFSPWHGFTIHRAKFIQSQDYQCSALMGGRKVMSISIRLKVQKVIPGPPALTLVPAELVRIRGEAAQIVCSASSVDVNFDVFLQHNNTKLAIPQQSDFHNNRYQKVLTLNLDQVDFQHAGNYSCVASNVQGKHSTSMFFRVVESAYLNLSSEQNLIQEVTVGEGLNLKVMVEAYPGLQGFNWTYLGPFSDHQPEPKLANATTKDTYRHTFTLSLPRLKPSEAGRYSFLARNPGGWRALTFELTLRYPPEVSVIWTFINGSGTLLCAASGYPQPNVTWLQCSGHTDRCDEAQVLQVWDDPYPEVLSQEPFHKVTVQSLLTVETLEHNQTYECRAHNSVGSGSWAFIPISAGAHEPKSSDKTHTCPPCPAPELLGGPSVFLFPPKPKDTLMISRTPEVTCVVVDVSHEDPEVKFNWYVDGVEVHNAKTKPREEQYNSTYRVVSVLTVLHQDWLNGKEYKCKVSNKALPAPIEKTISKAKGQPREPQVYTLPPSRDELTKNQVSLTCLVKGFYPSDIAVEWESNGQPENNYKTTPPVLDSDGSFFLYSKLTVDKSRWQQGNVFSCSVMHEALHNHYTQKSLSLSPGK
T3 sequence (chain, as listed by the source limits assumed): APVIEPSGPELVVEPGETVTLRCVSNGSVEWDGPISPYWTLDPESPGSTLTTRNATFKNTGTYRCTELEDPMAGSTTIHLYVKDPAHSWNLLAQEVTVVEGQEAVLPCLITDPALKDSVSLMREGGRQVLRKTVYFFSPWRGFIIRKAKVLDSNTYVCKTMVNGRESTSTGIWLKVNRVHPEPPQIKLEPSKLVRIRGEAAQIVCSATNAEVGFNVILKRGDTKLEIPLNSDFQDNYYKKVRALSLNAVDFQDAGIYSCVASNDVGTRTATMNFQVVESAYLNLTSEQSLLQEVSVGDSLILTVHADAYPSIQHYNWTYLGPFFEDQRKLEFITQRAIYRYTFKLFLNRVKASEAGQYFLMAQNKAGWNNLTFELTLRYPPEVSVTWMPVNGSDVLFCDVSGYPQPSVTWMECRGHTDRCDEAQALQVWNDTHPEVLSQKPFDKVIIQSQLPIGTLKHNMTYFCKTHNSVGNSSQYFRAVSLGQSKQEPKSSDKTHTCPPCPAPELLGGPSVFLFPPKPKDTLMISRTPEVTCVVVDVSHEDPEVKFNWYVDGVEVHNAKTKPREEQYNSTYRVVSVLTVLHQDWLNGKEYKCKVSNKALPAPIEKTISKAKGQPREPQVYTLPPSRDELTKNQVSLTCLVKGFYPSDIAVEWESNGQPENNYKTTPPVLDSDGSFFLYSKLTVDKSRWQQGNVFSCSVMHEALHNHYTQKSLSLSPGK

B1: h0302-L2H1 (antibody, human IgG4 S228P, kappa, V domains shown)
VH: QVQLVQSGAEVKKPGSSVKVSCKASGYTFSDFNIHWVRQAPGQGLEWMGYINPYTDVTVYNEKFKGRVTITSDKSTSTAYMELSSLRSEDTAVYYCASYFDGTFDYALDYWGQGTLVTVSS
VL: EIVVTQSPATLSLSPGERATLSCRASESVDNYGLSFMNWFQQKPGQAPRLLIYTASNLESGIPARFSGSGSRTDFTLTISSLEPEDFAVYYCQQSKELPWTFGQGTKVEIKR
notes: also called Ab9; huAb 0302-L2H1
As for B1, a half-maximal effect in experiment [1] (EC50) was put at 0.066 µg/mL. For the same molecule, in experiment [2], binding was characterised by a dissociation constant (Kd) of 0.57 nM, the koff was 0.000914 s⁻¹ and the kon came to 1.6e+06 M⁻¹ s⁻¹. In experiment [3], the binding result is “no binding (tested: 2000 ng/ml)”. In addition, in experiment [4], the “IC50, inhibition of CSF1-induced CSF1R phosphorylation (head prints 'Human CSF1/Human CSF1R ECD IC50')” value amounted to 0.384 µg/mL and the “IC50, inhibition of IL34-induced CSF1R phosphorylation (head prints 'Human IL34/Human CSF1R ECD IC50')” value was determined as 0.303 µg/mL. Also, the IC50 in experiment [5] was 0.509 µg/mL. In addition, a half-maximal effect in experiment [6] (EC50) was put at 0.00774 µg/mL. Besides, the IC50 in experiment [7] was 89.8 µg/mL.

As a reminder, the EC50 is the concentration that produces a half-maximal response. A higher EC50 goes with a less potent agent. For orientation: Kd means a measure of binding affinity in units of concentration. Broadly, the koff is the first-order rate constant of dissociation. Usually kon stands for the rate constant with which the complex forms. Read a low kon as slower complex formation. Usually IC50 stands for the midpoint of a concentration-inhibition curve. High values mean lower potency, low ones higher potency.

The record behind these values is patent publication US20220153851A1 (Five Prime, published 2022).
